From paper PMC11032447 come the findings set out here.

The chains are these.
B1: mouse secretagogin [mouse] / helix-b of the Habc domain of mouse syntaxin-4 [mouse] (parent)
chain 1: MDNARRKTPARLDAACFWQIWQRFDKEEKGYIRETELDAFFDHLLAKSGTEDTLMEENVQKVKEQLMTSHNVSKEGRILMKELASMFLSEDENFLLFFRLETPLDNSVEFMQIWRKYDADSSGFISAAELCNFLRDLFLHHKKNISEAELEEYTSTMMKIFDKNKDGRLDLNDLARILALQENFLLQFKMDASSTEERKRDFEKIFAHYDVSKTGALEGPEVDGFVKDMMELVQPSISGVDLDKFREILLRHCDVNKDGKIQKSELALCLGLKINP
chain 2: TPLPEESMKQGLQNLREEIKQLGREVRAQLKAIEPQKE

In the assay the parent is B1. In words: ITC. Details: reference not given here. Particulars: with helix-b of the Habc domain of mouse syntaxin-4 [mouse].
In the case of chain 1 MDNARRKTPARLDAACFWQIWQRFDKEEKGYIRETELDAFFDHLLAKSGTEDTLMEENVQKVKEQLMTSHNVSKEGRILMKELASMFLSEDENFLLFFRLETPLDNSVEFMQIWRKYDADSSGFISAAELCNFLRDLFLHHKKNISEAELEEYTSTMMKIFDKNKDGRLDLNDLARILALQENFLLQFKMDASSTEERKRDFEKIFAHYDVSKTGALEGPEVDGFVKDMMELVQPSISGVDLDKFREILLRHCDVNKDGKIQKSELALCAGLKINP [chain 1 L270A], the ratio to parent worked out at 39.8.
Take chain 1 MDNARRKTPARLDAACFWQIWQRFDKEEKGYIRETELDAFFDHLLAKSGTEDTLMEENVQKVKEQLMTSHNVSKEGRILMKELASMFLSEDENFLLFFRLETPLDNSVEFMQIWRKYDADSSGFISAAELCNFLRDLFLHHKKNISEAELEEYTSTMMKIFDKNKDGRLDLNDLARILALQENFLLQFKMDASSTEEAKRDFEKIFAHYDVSKTGALEGPEVDGFVKDMMELVQPSISGVDLDKFREILLRHCDVNKDGKIQKSELALCLGLKINP [chain 1 R198A]: the ratio to parent is 1.99.
As to chain 1 MDNARRKTPARLDAACFWQIWQRFDKEEKGYIRETELDAFFDHLLAKSGTEDTLMEENVQKVKEQLMTSHNVSKEGRILMKELASMFLSEDENFLLFFRLETPLDNSVEFMQIWRKYDADSSGFISAAELCNFLRDLFLHHKKNISEAELEEYTSTMMKIFDKNKDGRLDLNDLARILALQENFLLQFKMDASSTEERKRDFEKIFAHYDVSKTGALEGPEVDGFVKDMMELAQPSISGVDLDKFREILLRHCDVNKDGKIQKSELALCLGLKINP [chain 1 V233A], the ratio to parent was 0.31.
For chain 1 MDNARRKTPARLDAACFWQIWQRFDKEEKGYIRETELDAFFDHLLAKSGTEDTLMEENVQKVKEQLMTSHNVSKEGRILMKELASMFLSEDENFLLFFRLETPLDNSVEFMQIWRKYDADSSGFISAAELCNFLRDLFLHHKKNISEAELEEYTSTMMKIFDKNKDGRLDLNDLARILALQENFLLQFKMDASSTEERKRDFEKIFAHYDVSKTGALEGPEVDGFVKDAMELVQPSISGVDLDKFREILLRHCDVNKDGKIQKSELALCLGLKINP [chain 1 M229A] the value was 3.98.
Consider chain 1 MDNARRKTPARLDAACFWQIWQRFDKEEKGYIRETELDAFFDHLLAKSGTEDTLMEENVQKVKEQLMTSHNVSKEGRILMKELASMFLSEDENFLLFFRLETPLDNSVEFMQIWRKYDADSSGFISAAELCNFLRDLFLHHKKNISEAELEEYTSTMMKIFDKNKDGRLDLNDLARILALQENFLLQFKMDASSTEERKRDFEKIFAHYDVSKTGALEGPEVDGFVKDEMELVQPSISGVDLDKFREILLRHCDVNKDGKIQKSELALCLGLKINP [chain 1 M229E], for which the ratio to parent was found to be 12.8.
